Here are results for 27 proteins from article PMC5994540.

A short description of series [1]: spine/shaft GFP fluorescence ratio, hippocampal neurons. The settings on record: glycan lost; control: wild-type GluN3A.
Series [2] is described as follows: surface/total GFP immunofluorescence, hippocampal neuron dendrites. The settings on record: glycan lost; control: wild-type GluN3A.
Series [3] in a line: surface/total immunofluorescence, COS-7, with GluN1-4a. Particulars: glycan lost; control: wild-type GluN1/GluN3A.
Series [4] in a line: surface immunofluorescence, GluN1/GluN3A in human CDG patient fibroblasts. The settings on record: glycan lost; control: control fibroblasts.
Series [5] in a line: whole-cell patch clamp, 500 μM glycine, HEK293. Particulars: glycan lost; control: wild-type GluN1/GluN3A, untreated. On the technique in general: The patch-clamp technique gives a direct electrical read-out from membranes.
A short description of series [6]: surface/total GFP immunofluorescence, GFP-GluN3A in hippocampal neurons. Particulars: control: untreated.
Series [7] can be described thus: surface immunofluorescence, GluN1/GluN3A in COS-7. Particulars: control: untreated.
A short description of series [8]: surface biotinylation, endogenous GluN3A, rat hippocampal neurons. The settings on record: control: untreated.

B1: GluN3A subunit: GluN3A-12N→12Q (protein)
parent chain: MRRLSLWWLLSRVCLLLPPPCALVLAGVPSSSSHPQPCQILKRIGHAVRVGAVHLQPWTTAPRAASRAQEGGRAGAQRDDPESGTWRPPAPSQGARWLGSALHGRGPPGSRKLGEGAGAETLWPRDALLFAVENLNRVEGLLPYNLSLEVVMAIEAGLGDLPLMPFSSPSSPWSSDPFSFLQSVCHTVVVQGVSALLAFPQSQGEMMELDLVSSVLHIPVLSIVRHEFPRESQNPLHLQLSLENSLSSDADVTVSILTMNNWYNFSLLLCQEDWNITDFLLLTENNSKFHLESVINITANLSSTKDLLSFLQVQMDNIRNSTPTMVMFGCDMDSIRQIFEMSTQFGLSPPELHWVLGDSQNVEELRTEGLPLGLIAHGKTTQSVFEYYVQDAMELVARAVATATMIQPELALLPSTMNCMDVKTTNLTSGQYLSRFLANTTFRGLSGSIKVKGSTIISSENNFFIWNLQHDPMGKPMWTRLGSWQGGRIVMDSGIWPEQAQRHKTHFQHPNKLHLRVVTLIEHPFVFTREVDDEGLCPAGQLCLDPMTNDSSMLDRLFSSLHSSNDTVPIKFKKCCYGYCIDLLEQLAEDMNFDFDLYIVGDGKYGAWKNGHWTGLVGDLLSGTANMAVTSFSINTARSQVIDFTSPFFSTSLGILVRTRDTAAPIGAFMWPLHWTMWLGIFVALHITAIFLTLYEWKSPFGMTPKGRNRNKVFSFSSALNVCYALLFGRTAAIKPPKCWTGRFLMNLWAIFCMFCLSTYTANLAAVMVGEKIYEELSGIHDPKLHHPSQGFRFGTVRESSAEDYVRQSFPEMHEYMRRYNVPATPDGVQYLKNDPEKLDAFIMDKALLDYEVSIDADCKLLTVGKPFAIEGYGIGLPPNSPLTSNISELISQYKSHGFMDVLHDKWYKVVPCGKRSFAVTETLQMGIKHFSGLFVLLCIGFGLSILTTIGEHIVHRLLLPRIKNKSKLQYWLHTSQRFHRALNTSFVEEKQPRSKTKRVEKSRWRRWTCKTEGDSELSLFPRSNLGPQQLMVWNTSNLSHDNQRKYIFNDEEGQNQLGTQAHQDIPLPQRRRELPASLTTNGKADSLNVTRSSVIQELSELEKQIQVIRQELQLAVSRKTELEEYQKTNRTCES
As to B1, the localisation_or_trafficking entry in series [1] is listed as “decreases”; in series [2] it was “decreases”; in series [3], “abolishes”.

B2: GluN3A subunit: N426Q (protein)
parent chain: B1 parent chain
Take B2: in series [3], the localisation_or_trafficking result is “no change”.

B3: GluN3A subunit: ALG8-CDG (protein)
parent chain: B1 parent chain
For the protein B3, the localisation_or_trafficking entry in series [4] is listed as “decreases”.

B4: GluN3A subunit: N565Q (protein)
parent chain: B1 parent chain
Consider B4, for which the localisation_or_trafficking entry in series [3] is recorded as “no change”.

B5: GluN3A subunit: N264Q (protein)
parent chain: B1 parent chain
As for B5, the localisation_or_trafficking result in series [3] was “no change”.

B6: GluN3A subunit: GluN3A-1/4N→Q (protein)
parent chain: B1 parent chain
In the case of B6, in series [5], the “other: channel desensitisation (τw), other: τw of desensitization” value is “no change”. The localisation_or_trafficking result in series [1], in series [2] and in series [3] was “decreases” each time.

B7: GluN3A subunit: N439Q (protein)
parent chain: B1 parent chain
Take B7: in series [3], the localisation_or_trafficking result is given as “no change”.

B8: GluN3A subunit: kifunensine (protein)
parent chain: B1 parent chain
As to B8, the localisation_or_trafficking entry in series [6] (glycan changed form), in series [7] (glycan changed form) and in series [8] (glycan changed form) was “no change” each time.

B9: GluN3A subunit: GluN3A-3/4N→Q (protein)
parent chain: B1 parent chain
Consider B9, for which, in series [3], the localisation_or_trafficking result is reported as “no change”.

B10: GluN3A subunit: GluN3A-2/2N→Q (protein)
parent chain: B1 parent chain
In the case of B10, the localisation_or_trafficking result in series [2] and in series [3] was “no change” in each case.

B11: GluN3A subunit: N285Q (protein)
parent chain: B1 parent chain
Take B11: the localisation_or_trafficking result in series [3] was “no change”.

B12: GluN3A subunit: swainsonine (protein)
parent chain: B1 parent chain
As for B12, the localisation_or_trafficking entry in series [6] (glycan changed form), in series [7] (glycan changed form) and in series [8] (glycan changed form) was “no change” each time.

B13: GluN3A subunit: GluN3A-1/2N→Q (protein)
parent chain: B1 parent chain
In the case of B13, the localisation_or_trafficking entry in series [2] and in series [3] was “decreases” each time.

B14: GluN3A subunit: N275Q (protein)
parent chain: B1 parent chain
Regarding B14, the localisation_or_trafficking entry in series [3] was “no change”.

B15: GluN3A subunit: N145Q (protein)
parent chain: B1 parent chain
Regarding B15, in series [3], the localisation_or_trafficking entry is listed as “no change”.

B16: GluN3A subunit: N886Q (protein)
parent chain: B1 parent chain
B16: in series [3], the localisation_or_trafficking entry is listed as “no change”.

B17: GluN3A subunit: DNJ (protein)
parent chain: B1 parent chain
Take B17: the localisation_or_trafficking result in series [6] (glycan changed form), in series [7] (glycan changed form) and in series [8] (glycan changed form) was “no change” throughout.

B18: GluN3A subunit: N300Q (protein)
parent chain: B1 parent chain
Turning to B18, the localisation_or_trafficking result in series [3] was “no change”.

B19: GluN3A subunit: DPAGT1-CDG (protein)
parent chain: B1 parent chain
With B19, the localisation_or_trafficking result in series [4] was “no change”.

B20: GluN3A subunit: GluN3A-4/4N→Q (protein)
parent chain: B1 parent chain
For the protein B20, in series [3], the localisation_or_trafficking result is listed as “no change”.

B21: GluN3A subunit: DMM (protein)
parent chain: B1 parent chain
Consider B21, for which the localisation_or_trafficking entry in series [6] (glycan changed form), in series [7] (glycan changed form) and in series [8] (glycan changed form) was “no change” each time.

B22: GluN3A subunit: N320Q (protein)
parent chain: B1 parent chain
As to B22, the localisation_or_trafficking result in series [3] is listed as “no change”.

B23: GluN3A subunit: GluN3A-2/4N→Q (protein)
parent chain: B1 parent chain
B23: in series [3], the localisation_or_trafficking entry is on record as “no change”.

B24: GluN3A subunit: N296Q (protein)
parent chain: B1 parent chain
On to B24, for which the localisation_or_trafficking result in series [3] is reported as “no change”.

B25: GluN3A subunit: tunicamycin (protein)
parent chain: B1 parent chain
Turning to B25, the localisation_or_trafficking entry in series [6] (glycan lost), in series [7] (glycan lost) and in series [8] (glycan lost) was “decreases” each time.

B26: GluN3A subunit: N549Q (protein)
parent chain: B1 parent chain
Take B26: the localisation_or_trafficking entry in series [3] is recorded as “no change”.

B27: GluN3A subunit: PNGase F (protein)
parent chain: B1 parent chain
In the case of B27, the “other: channel desensitisation (τw), other: τw of desensitization” value in series [5] was “no change”.
